Test results taken from US20130272958A1 (NATIONAL RESEARCH COUNCIL OF CANADA, published 2013).

Legend:
[1] = molecular target: recombinant CEACAM6 N-terminal domain (expressed in E. coli) (Homo sapiens (Human)) (UniProt P40199); assay: SPR (Biacore 3000), 9A6 immobilised, CEACAM6 recombinant protein injected at 0.1-200 nM
[2] = molecular target: T1, native CEACAM6 expressed by human tumor cells (BxPC3, LS174T, A549) (human, UniProt P40199 35-320); assay: cell-based or functional assay
T1 sequence: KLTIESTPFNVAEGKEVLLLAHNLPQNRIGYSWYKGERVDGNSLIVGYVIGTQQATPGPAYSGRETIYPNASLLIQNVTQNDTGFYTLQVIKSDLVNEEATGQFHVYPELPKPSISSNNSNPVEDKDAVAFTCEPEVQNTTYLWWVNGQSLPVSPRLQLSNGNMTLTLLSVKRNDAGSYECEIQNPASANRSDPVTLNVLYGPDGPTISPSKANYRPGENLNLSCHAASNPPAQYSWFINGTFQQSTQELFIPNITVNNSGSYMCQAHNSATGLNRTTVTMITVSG

[3] = molecular target: T2, CEACAM6 peptide HNLPQNRIGYSWYKG; assay: peptide array membrane, anti-llama detection
T2 construct: Spot on a JPT peptide array (45 peptides, 15 residues long, 10 overlapping)
T2 peptide: HNLPQNRIGYSWYKG

[4] = molecular target: T3, CEACAM6 peptide NRIGYSWYKGERVDG; assay: peptide array membrane, anti-llama detection
T3 construct: Spot on a JPT peptide array (45 peptides, 15 residues long, 10 overlapping)
T3 peptide: NRIGYSWYKGERVDG

[5] = molecular target: T4, recombinant CEACAM6 N-terminal domain (expressed in E. coli) (Homo sapiens (Human), UniProt P40199 35-142, limits assumed); assay: SPR (Biacore 3000), CEACAM6 immobilised, 2A3 injected at 1-60 nM, 1:1 Langmuir fit
T4 construct: also called CEACAM6 N-domain; recombinant CEACAM6 protein (N-domain)
T4 sequence: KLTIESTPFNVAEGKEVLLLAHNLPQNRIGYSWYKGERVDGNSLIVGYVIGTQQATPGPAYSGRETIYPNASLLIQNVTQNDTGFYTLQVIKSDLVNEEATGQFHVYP
Protocol: Immobilizations were performed with an amine-coupling kit (GE Healthcare) and carried out at 50 μg/ml CEACAM6 in 10 mM Acetate, pH 4 (GE Healthcare) and 50 μg/ml of Ovalbumin in 10 mM Acetate, pH 4.5. 120 μL of the sdAb at concentration of 1 nM to 60 nM were injected over the surfaces at a flow rate of 40 μl/min. Analyses were carried out at room temperature in HBS-EP, 10 mM HEPES pH 7.4, 150 mM NaCl, 3 mM EDTA and 0.005% surfactant P20 (GE Healthcare). Regeneration was performed with running buffer (HBS-EP). Data were analyzed with BIAevaluation software 4.1.

[6] = molecular target: T4, recombinant CEACAM6 N-terminal domain …; assay: SPR (Biacore 3000), 2A3-Fc immobilised, CEACAM6 recombinant protein injected at 0.1-200 nM
Protocol: One hundred twenty microliters of CEACAM6 recombinant protein at concentration of 0.1 nM to 200 nM was injected over the surfaces at a flow rate of 40 μl min-1. Analyses were carried out at room temperature in HBS-EP comprising 10 mM HEPES pH 7.4, 150 mM NaCl, 3 mM EDTA and 0.005% surfactant P20 (GE Healthcare). Regeneration was performed with HBS-EP used as running buffer. The data were analyzed by using BIAevaluation software 4.1.

**Q.** “anti-CEACAM6 mouse monoclonal antibody 9A6 (Santa Cruz Biotechnology)” was tested. Which Kd [1] did it give?
**A.** The Kd was 0.008 µM.

B1: sdAb 2A3 (engineered, with c-myc and His tags) (VHH)
VHH: QVKLEESGGGLVQAGGSLRLSCRTSGRTNSVYTMGWFRQAPGKEREFVAQIMWGAGTNTHYADSVKGRFTISRDSAESTVYLQMNSLKPEDTAVYYCAANRGIPIAGRQYDYWGQGTQVTVSS
modifications: FITC-labelled in the staining and flow cytometry assays
notes: Llama VHH expressed in the E. coli periplasm and purified by IMAC; monomer by size exclusion; also called 2A3 sdAb; FITC-2A3
**Q.** B1 was tested. Which “BxPC3 cell proliferation (MTT assay), IC50” value [2] did it give?
**A.** The value was 6.5 µM.

**Q.** Does B1 bind [3]?
**A.** Result: binds

**Q.** Does B1 bind [4]?
**A.** Result: binds

**Q.** And the Kd [5]?
**A.** Its Kd is 0.0047 µM.

**Q.** And the koff [5]?
**A.** The koff was 0.0053 s⁻¹.

**Q.** And the kon [5]?
**A.** The kon was 1.1e+06 M⁻¹ s⁻¹.

B2: 2A3-Fc (2A3 sdAb fused to mouse Fc2b fragment) (Fc fusion)
chain: B1 VHH
modifications: FITC, Alexa Fluor 594 or 64Cu-DOTA label in some assays
notes: Expressed in 293-6E cells and purified on Protein G; about 80 kDa, bivalent; also called 2A3-mFc; 2A3mFc; not shown: mouse Fc2b fragment (Fc of mouse IgG2b) from vector pTT5
**Q.** Which “BxPC3 cell proliferation (MTT assay), IC50” value [2] does the source give for B2 here?
**A.** The value was 8 µM.

**Q.** And the Kd [6]?
**A.** The Kd was 0.013 µM.
